Data taken from PMC1948075 (The EMBO Journal, 2007).
Ends that are not written are not given here.

Biological target: T1, GST-IgFLNa21 (amino acids 2236–2329) (human, UniProt P21333 2236-2329)
T1 sequence (looked up): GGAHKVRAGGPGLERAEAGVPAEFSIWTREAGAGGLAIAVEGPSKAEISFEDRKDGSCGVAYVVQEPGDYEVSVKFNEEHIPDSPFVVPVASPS
Test: pull-down

B1: recombinant His-tagged integrin β7 cytoplasmic tail model protein (domain or fragment, UniProt P26010 747-798, looked up)
chain: RLSVEIYDRREYSRFEKEQQQLNWKQDSNPLYKSAITTTINPRFQEADSPTL
modifications: also: His-tagged, tag place not given here
  Kd: 700 ± 100 nM
